± gives the standard deviation.
Experiment: protein stability index of a GFP-peptide fusion (GPS, HEK-293T) (PSI 1-6); higher = more stable
Details: c terminus: a fixed tail appended
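Further: 24-mer peptide tiles fused after GFP, lentivirally expressed, FACS-sorted into six equal bins by GFP/DsRed ratio, decoded by Illumina sequencing, PSI is the read-weighted mean bin number.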

Row | Sequence | protein stability index (treatment: DMSO) | protein stability index (treatment: MLN4924 1 uM, 8 h)
1 | VKRKMDGREYPDAQGFAADVRLMF [BRD3] | 2.44 ± 0.043 | 2.58 ± 0.18
2 | KPGPQDTVERPFYDLWASDNPLDR [NOP53] | 4.45 ± 0.43 | 4.38 ± 0.16
3 | PKKPIGGNIIAHASTTRLYLRKGR [RAD51] | 3.79 ± 0.29 | 3.74 ± 0.17
4 | RWMGLACFRSLAASSPSIRQKKLM [CCDC70] | 2.29 ± 0.61 | 2.29 ± 0.4
5 | ECKKLFQVPEEMSRCRNSYTEQEL [DLC1] | 3.76 ± 0.092 | 4 ± 0.22
6 | IEIGCEDKTLAFKMNGYISNANYS [MLH1] | 2.34 ± 0.3 | –
7 | MKFVPRYSLVLELSDSGAFRRSLH [APMAP] | 2.17 ± 0.54 | 2.03 ± 0.51
8 | GGGGQGDGGSSLASGSTQRQPPPP [FBXO28] | 5.38 ± 0.19 | 5.27 ± 0.29
9 | AKKGRRNQSVEPKKEEPEPETEAV [ZMYND11] | 5.53 ± 0.28 | 5.66 ± 0.21
10 | MALKTSLGSVQFMEQFCWPHLRSF | 3.01 ± 0.86 | 2.69 ± 0.73
11 | FQFLSWPDYGVPSSAASLIDFLRV [PTPN9] | 2.7 ± 0.36 | 2.53 ± 0.41
12 | FEYSTIKCRDLSALMHELSNDGAR [BTBD10] | 2.53 ± 0.31 | 2.57 ± 0.41
13 | AGISPLQQMVASGTGAVVTSLFMT [SLC25A39] | 2.02 ± 0.57 | 2.17 ± 0.5
14 | HLYQSSARRYAGPLHHQTQRFRLD [ELAVL3] | 2.99 ± 0.18 | 3.05 ± 0.32
15 | RVDHGAEIITQSPGRSSVASPRRL [MAP2] | 4.45 ± 0.13 | 4.71 ± 0.17
16 | CSSSDDDTDVDMEGLRRRRGREAG [PBXIP1] | 5.3 ± 0.28 | 5.26 ± 0.21
17 | GNLQLDCLAQGWKQYQQRAFGWFR [RTP4] | 2.3 ± 0.5 | 2.24 ± 0.23
18 | GTFCSLDICLAQLEELGTLNVFQT [PTPN9] | 2.93 ± 0.92 | 2.24 ± 0.46
19 | TWHHTKPLLPSDLRRTGCAALRIA [GAN] | 2.45 ± 0.33 | 2.48 ± 0.24
20 | NGDVSAPSAILRTPESTKPGPVCQ [ANKRD40] | 4.782 ± 0.036 | 4.83 ± 0.13
21 | SPSKSFWTRITCAEEGWSPTPKCL [CFHR2] | 2.17 ± 0.22 | 2.47 ± 0.33
22 | FIYMVLSLFIALITGAYDTIKHPG [MCOLN1] | 2.94 ± 0.21 | 2.85 ± 0.28
23 | FLVVLKTVLENEDDMLLFDEQEKG [FAN1] | 2.34 ± 0.23 | 2.28 ± 0.26

Row | Sequence | protein stability index (treatment: DMSO) | protein stability index (treatment: MLN4924 1 uM, 8 h)
24 | LCYPPAKGCLKLCRRCYDWIHRPG [SPRY1] | 2.06 ± 0.094 | 2.27 ± 0.33
25 | DCSGLVLLCLFFGIPWEAGARQIS [PCDHGA10] | 3.45 ± 0.4 | 3.19 ± 0.2
26 | LAGPNDRSDVEKGGKIIMPPSALD [UFD1] | 4.77 ± 0.11 | 4.97 ± 0.2
27 | SCCMTEEIFGPVTCVVPFDSEEEV [ALDH8A1] | 4.71 ± 0.34 | 4.83 ± 0.27
28 | IHSIPKGTEITIAFDFDYGNCKYK [KMT2E] | 2.19 ± 0.31 | 1.98 ± 0.32
29 | SKRNIKKGAVPRSIPNLAEVKKKG [HDAC6] | 4.26 ± 0.47 | 4.46 ± 0.44
30 | GATYLELHSLDDFYIGKYFGGVLE [RHOBTB3] | 2.6 ± 0.61 | 2.32 ± 0.23
31 | YEDGEVEEEADSCFGDDEDDSGTE [CDC34] | 5.61 ± 0.16 | 5.67 ± 0.12
32 | EDEGFLREEERPLPRRDFQRQVWL [KCNA3] | 3.97 ± 0.1 | 4 ± 0.4
33 | PTFMIAVFLPIVVLIFKSILFLPC [STEAP1] | 3.22 ± 0.3 | 3.3 ± 0.46
34 | VAIAQKFAALRASLVAPLLLELAG [MYORG] | 2.9 ± 0.76 | 2.68 ± 1.1
35 | WVEQAYADKCVCGPSAPPAPTPPS [TIAF1] | 3.9 ± 0.17 | 3.9 ± 0.3
36 | YPIYVIPEPPPVSFQPYHPLHFRG [TENT5D] | 2.35 ± 0.28 | 2.32 ± 0.37
37 | QGMEVDLVTGLAIEEACYAQTIPT [AUH] | 3.73 ± 0.21 | 3.53 ± 0.2
38 | VRMSADAMLKALLGSKHKVCMDLR [TNNI2] | 2.25 ± 0.45 | 2.1 ± 0.3
39 | NGQKPLGAAEPITVKFANNPSQKT [ELAVL3] | 4.85 ± 0.36 | 4.83 ± 0.23
40 | GELLATGDKGGRVVIFQREPESKN [PPP2R2C] | 4.61 ± 0.37 | 4.93 ± 0.21
41 | LHLLYLLEKVECTPSQEHLKHQTV [FEM1A] | 2.29 ± 0.43 | 2.23 ± 0.26
42 | AKGLAESLELPKAIQDQLPRLQQL [FANCE] | 3.95 ± 0.12 | 4.15 ± 0.3
43 | KLRFNRKKKGMYRKAITEAANAAR [PWWP2B] | 3.42 ± 0.23 | 3.29 ± 0.2
44 | NQVVSSTNGELNTDDPTAGRSNAP [CSNK1G3] | 5.41 ± 0.28 | 5.5 ± 0.17
45 | GFPRVAPEDEVIVNQYVIRPGPSA [RNF208] | 3.66 ± 0.25 | 3.67 ± 0.13
46 | FPELGYSYGGGSASSQHSEGSRSS [DVL3] | 3.39 ± 0.28 | 4.03 ± 0.53

Row | Sequence | protein stability index (treatment: DMSO) | protein stability index (treatment: MLN4924 1 uM, 8 h)
47 | SLLVHGFKPACMSEIKNLERYMCS [TENT5D] | 2.48 ± 0.41 | 2.41 ± 0.29
48 | EIFVDCDINREQLNDIFHLLKSHT [TPH1] | 2.19 ± 0.3 | 2.19 ± 0.35
49 | CAFVGALGGAAFLGTAIFIEADRR [SPNS1] | 2.8 ± 0.78 | 2.36 ± 0.67
50 | GPGPQLRRGWRPSSREDSLEAGLP [CHGA] | 3.86 ± 0.14 | 4.24 ± 0.31
51 | KRGGNCPAPAPLVPQDPDLEEEEE [ZBTB22] | 5.56 ± 0.26 | 5.59 ± 0.21
52 | ASESEHIPKPQSTGWFGGGFTSYL [MIA2] | 2.4 ± 0.37 | 2.69 ± 0.34
53 | NSFGAILQGSLFGLAGLLPASYTA [SLC29A1] | 2.21 ± 0.27 | 2.9 ± 0.84
54 | DRFYVINYLVRLSFHNLKFDCSTA [ZNF277] | 2.98 ± 0.88 | 2.54 ± 0.43
55 | TPNASSPGNPTALANGTVQAPKQK [LPCAT4] | 5.31 ± 0.13 | 5.43 ± 0.15
56 | PPGLPRVSAYVDTTADLDRKLSFS [SPATS1] | 3.79 ± 0.26 | 3.96 ± 0.23
57 | NQGLNVMVWNQNGKSPSITFEYTL [ADAMTSL2] | 3.01 ± 0.3 | 2.64 ± 0.53
58 | DSRRIFVGQDNGAVMEFHVSEDFN [WDFY1] | 4.07 ± 0.32 | 4.22 ± 0.11
59 | EVSCQCQLHPPRWYSRLQACQWGG | 2.17 ± 0.13 | 2.29 ± 0.4
60 | MFRSKRSGLVRRLWRSRVVPDREE [SMAD6] | 2.67 ± 0.17 | 3.24 ± 0.5
61 | KAFWKEDNALWERDRNLLQEDKAL [CCDC70] | 4.16 ± 0.081 | 4.24 ± 0.18
62 | FDTLATVGTGTFGRVHLVKEKTAK [PRKX] | 4.66 ± 0.22 | 4.54 ± 0.41
63 | IDDRYGDLDSRTDSDIPEIPPSSD [CDS1] | 5.43 ± 0.34 | 5.45 ± 0.19
64 | ARHLREYQELLNVKMALDIEIATY [PRPH] | 2.34 ± 0.4 | 2.4 ± 0.37
65 | HKVKAEEEKKAKVAPPAKQAQQKK [BRD3] | 5.5 ± 0.22 | 5.5 ± 0.29
66 | DLNKDKPVIPAAALAGYTGSGPIQ [ETS1] | 4.2 ± 0.13 | 4.14 ± 0.25
67 | STTALGDKQRKANESKGTRESWDS [ELOA2] | 4.06 ± 0.49 | 4.34 ± 0.72
68 | KRKSEVERAVKRMRHLSTGTMTGL [MATN2] | 3.31 ± 0.088 | 3.12 ± 0.65
69 | HHREGLLAIFKSGGIPALVKMLGS [CTNNB1] | 2.82 ± 0.39 | 2.71 ± 0.64

Row | Sequence | protein stability index (treatment: DMSO) | protein stability index (treatment: MLN4924 1 uM, 8 h)
70 | DPHNSRRGFFFSHVGWLLVRKHPA [SCD] | 2.33 ± 0.27 | 2.3 ± 0.35
71 | LDSSEGSSQEDEDLGLSEGSSQDS [SPANXN3] | 5.66 ± 0.19 | 5.64 ± 0.23
72 | GCKGFFRRSMKRKALFTCPFNGDC [VDR] | 2.47 ± 0.43 | 2.21 ± 0.14
73 | WLPESDCETVTCCLFSERDAAGAP [SMAD6] | 3.72 ± 0.58 | 3.96 ± 0.27
74 | DTELLGQATLPVGSPSRPLSRRQL [C2CD2L] | 4.74 ± 0.18 | 4.81 ± 0.15
75 | IMNIIDIVSILPYFITLGTDLAQQ [KCNA4] | 3.37 ± 0.44 | 2.95 ± 0.49
76 | LGYCLLLMLAGMGLHYIAFRKVKQ [DNAJC4] | 3.18 ± 0.28 | 3.11 ± 0.38
77 | EDRIVTQNRVFAYLCKRVPHTVLD [CEP70] | 2.27 ± 0.2 | 2.37 ± 0.37
78 | SFMPLVIKVTSATSVNLGILTADL [SLC35F2] | 2.7 ± 1 | 2.87 ± 0.49
79 | KEHWTPEGHSIVGFAMYYFTYDPW [SAT1] | 3.05 ± 0.44 | 3.1 ± 0.43
80 | FEFEVRVCDSCHEAITDEERAPTA [WDFY2] | 3.48 ± 0.33 | 3.57 ± 0.086
81 | SGAGGTGGPAGQAGRGGAAGTAGV [MYOZ1] | 5.07 ± 0.2 | 4.93 ± 0.17
82 | NRRLRALEEQGATWRHRETLIIAV [FATE1] | 2.46 ± 0.39 | 2.22 ± 0.15
83 | RCHTVPCAGSTALQEPGEPQGPPA [PXN] | 4.89 ± 0.15 | 4.92 ± 0.25
84 | MLTTRVFSLVGKRAISTSVCVRAH [COX4I1] | 2.56 ± 0.64 | 2.4 ± 0.59
85 | AHSNAISNCCFTFSGHFLCTSSWD [WDR88] | 2.48 ± 0.49 | 2.3 ± 0.57
86 | PKTVQQPTESEPVTINIQDLLSCS [MATN2] | 4.35 ± 0.17 | 4.32 ± 0.16
87 | GDLAYRRQEYQKALQEYSSISEKL [C8orf76] | 4.14 ± 0.25 | 4.16 ± 0.2
88 | AHLPKAQLSGYAVEATRNQSQLQR [FBF1] | 4.21 ± 0.044 | 4.08 ± 0.2
89 | LQELCYQWLRPHVSTKEQILDLLV [ZSCAN9] | 2.52 ± 0.094 | 2.45 ± 0.28
90 | LLRFAQVFSQMIHLNETVKAPDIE [FEM1B] | 2.67 ± 1.1 | 2.46 ± 0.85

From the supplement of paper PMC10567573
